# Where no end group is shown, it is not given here.
# B1: Phage-2695 (peptide)
# peptide: HWRMCVPTWMCHLD
# modifications: cysteine pairing not given here; also: displayed on bacteriophage as fusion to pIII
# B2: Phage-2703 (peptide)
# peptide: TIKWCTPSWMCAEI
# modifications: cysteine pairing not given here; also: displayed on bacteriophage as fusion to pIII
# B3: Phage-2704 (peptide)
# peptide: VGNWCIPLWMCAAE
# modifications: cysteine pairing not given here; also: displayed on bacteriophage as fusion to pIII
# B4: Phage-2691 (peptide)
# peptide: IVKWCTPPWMCERP
# modifications: cysteine pairing not given here; also: displayed on bacteriophage as fusion to pIII, fusion and linker not given here
# notes: Tested as clonal phage supernatant; also called Peptide-180 library clone
# B5: Phage-2692 (peptide)
# peptide: MEKWCIPQWMCEQF
# modifications: cysteine pairing not given here; also: displayed on bacteriophage as fusion to pIII, fusion and linker not given here
# notes: as for B4
# B6: Phage-2693 (peptide)
# peptide: MGNWCTPSWMCEGL
# modifications: cysteine pairing not given here; also: displayed on bacteriophage as fusion to pIII, fusion and linker not given here
# notes: as for B4
# B7: Phage-2694 (peptide)
# peptide: GEKWCTPLWMCEWY
# modifications: cysteine pairing not given here; also: displayed on bacteriophage as fusion to pIII, fusion and linker not given here
# notes: as for B4
# Target: T1, 006 PSMA Fab
# T1 construct: also called Anti-PSMA Fab
# Assay: phage binding ELISA; biotinylated PSMA Fab on neutravidin plate pre-incubated with PSMA antigen as competitor, clonal phage supernatant, anti-M13 HRP detection
# Experimental: (§1) Clonal phage were harvested as crude supernatants and screened via standard ELISAs. […] Prior to the addition of clonal phage. wells were incubated with blocking buffer and PSMA antigen or blocking buffer alone. Without washing or aspirating, clonal phage supernatants were then added to the wells and incubated for a short time. Wells were then washed followed by detection of bound phage using a horse radish conjugated anti-M13 antibody.
row,Binder,"Phage binding ELISA signal, Anti-PSMA Fab with PSMA antigen"
1,B1,0.15
2,EEMWCIPVWMCEHQ [Phage-2696],0.0935
3,FVKWCTPSWMCESQ [Phage-2697],0.0785
4,DNKMCIPVWMCERF [Phage-2698],0.0685
5,GSHWCEPLWMCSAF [Phage-2699],0.0853
6,IEKWCTPPWMCESS [Phage-2700],0.104
7,DNMLCRPSWMCEGL [Phage-2701],0.0762
8,QVPWCTPAWMCERA [Phage-2702],0.126
9,B2,0.105
10,B3,0.0867
11,EQMWCTPAWMCTGF [Phage-2705],0.0782
12,DYKWCTPPWMCYSA [Phage-2706],0.0621

# Target: T1, 006 PSMA Fab
# Assay: phage binding ELISA; biotinylated PSMA Fab on neutravidin plate, clonal phage supernatant, anti-M13 HRP detection; blocking buffer alone;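 note: before phage were added, wells were preincubated with blocking buffer either containing PSMA antigen or without it, and phage were then added with no wash in between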
# Experimental: as §1
row,Binder,"Phage binding ELISA signal, Anti-PSMA Fab"
1,B1,0.83
2,EEMWCIPVWMCEHQ [Phage-2696],0.829
3,FVKWCTPSWMCESQ [Phage-2697],0.828
4,DNKMCIPVWMCERF [Phage-2698],0.824
5,GSHWCEPLWMCSAF [Phage-2699],0.824
6,IEKWCTPPWMCESS [Phage-2700],0.824
7,DNMLCRPSWMCEGL [Phage-2701],0.816
8,QVPWCTPAWMCERA [Phage-2702],0.814
9,B2,0.811
10,B3,0.81
11,EQMWCTPAWMCTGF [Phage-2705],0.81
12,DYKWCTPPWMCYSA [Phage-2706],0.804

# Target: T2, PSMA Fab (006 PSMA Fab) (biotinylated (site not given))
# T2 construct: also called Anti-PSMA Fab; anti-PSMA Fab
# Assay: clonal phage ELISA; biotinylated PSMA Fab on neutravidin plate, blocking buffer alone; anti-M13 HRP detection;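 note: crude clonal phage supernatants added without washing to wells pretreated with blocking buffer with or without PSMA antigen, short incubation, then washed before detecting bound phage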
row,Binder,"Phage binding ELISA signal, Anti-PSMA Fab"
1,B4,0.834
2,B5,0.834
3,B6,0.833
4,B7,0.832
